How the values were obtained:
[1] = biological target: T1, Maackia amurensis lectin (MAL) (Maackia amurensis); experiment: lectin ELISA; slope of absorbance at 405 nm against ng Hp
T1 construct: Used at 10 µg/ml in the lectin ELISA

[2] = biological target: T2, Lotus tetragonolobus lectin (LTL) (Lotus tetragonolobus, UniProt P19664 1-240); experiment: as above
T2 construct: Used at 2 µg/ml in the lectin ELISA
T2 sequence (looked up): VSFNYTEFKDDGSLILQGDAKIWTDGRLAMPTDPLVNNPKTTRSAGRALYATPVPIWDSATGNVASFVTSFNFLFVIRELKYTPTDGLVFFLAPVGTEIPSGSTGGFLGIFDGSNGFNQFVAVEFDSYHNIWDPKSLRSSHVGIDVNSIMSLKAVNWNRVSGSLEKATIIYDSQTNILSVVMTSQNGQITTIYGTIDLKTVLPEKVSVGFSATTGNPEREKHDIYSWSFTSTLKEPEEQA

T1 sequence (P0DKL3 30-278): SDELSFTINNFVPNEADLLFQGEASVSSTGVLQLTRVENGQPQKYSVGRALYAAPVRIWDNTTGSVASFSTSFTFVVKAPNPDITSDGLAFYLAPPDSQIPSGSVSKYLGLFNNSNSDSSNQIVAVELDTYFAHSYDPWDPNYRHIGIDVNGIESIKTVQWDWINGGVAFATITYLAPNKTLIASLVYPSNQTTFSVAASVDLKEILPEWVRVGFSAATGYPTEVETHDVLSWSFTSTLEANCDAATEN

fold binding relative to sHp [1]: 10 times (vs sHp)
fold binding relative to sHp [2]: 11 times (vs sHp)
B1: endometriosis-associated peritoneal endometriotic haptoglobin (pHp) (other, human)
chain 1: VDSGNDVTDIADDGCPKPPEIAHGYVEHSVRYQCKNYYKLRTEGDGVYTLNDKKQWINKAVGDKLPECEADDGCPKPPEIAHGYVEHSVRYQCKNYYKLRTEGDGVYTLNNEKQWINKAVGDKLPECEAVCGKPKNPANPVQ
chain 2: ILGGHLDAKGSFPWQAKMVSHHNLTTGATLINEQWLLTTAKNLFLNHSENATAKDIAPTLTLYVGKKQLVEIEKVVLHPNYSQVDIGLIKLKQKVSVNERVMPICLPSKDYAEVGRVGYVSGWGRNANFKFTDHLKYVMLPVADQDQCIRHYEGSTVPEKKTPKSPVGVQPILNEHTFCAGMSKYQEDTCYGDAGSAFAVHDLEEDTWYATGILSFDKSCAVAEYGVYVKVTSIQDWVQKTIAEN
modifications: N-glycosylated; 3 kDa less carbohydrate than sHp beta-chain; more alpha(2-3) sialic acid and fucose than sHp
notes: domain: α-subunit;domain: β-subunit; also called peritoneal endometriotic Hp

Source: patent publication US20030166014A1 (CURATORS OF THE UNIVERSITY OF MISSOURI, published 2003)
